Source: patent US20130203078A1
Blank lines part the entries; values can stand above or below the substance they belong to.

How the values were obtained:
Test in all cases: cell-based or functional assay
[1] = target: Human Interleukin 8 Receptor (hIL8RA), on RBL-2H3 cells with human granzyme A (Sensor A) (human) (UniProt P25024)
[2] = target: T1, human native unmodified procaspase-3 (huCasp3) (human) (UniProt P42574)
T1 sequence (looked up): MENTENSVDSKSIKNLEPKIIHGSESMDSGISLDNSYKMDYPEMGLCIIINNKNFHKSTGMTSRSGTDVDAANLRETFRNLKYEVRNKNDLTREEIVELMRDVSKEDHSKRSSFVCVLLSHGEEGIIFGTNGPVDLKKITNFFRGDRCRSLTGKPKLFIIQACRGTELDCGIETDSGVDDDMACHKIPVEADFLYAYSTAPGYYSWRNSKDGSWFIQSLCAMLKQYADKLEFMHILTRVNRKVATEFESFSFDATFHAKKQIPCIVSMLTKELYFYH

[3] = target: mutated human procaspase-3 (mut-huCasp3), amino acids 172 to 179 changed from IETDSGVD to IEPDVLME (human) (UniProt P42574)
[4] = target: Human Bradykinin Receptor B1 (BDKRB1), c-myc tagged with viral glycosilation sequence, on RBL-2H3 cells (human) (UniProt P46663)
Human Bradykinin Receptor B1 (BDKRB1), c-myc tagged with viral glycosilation sequence, on RBL-2H3 cells (human), sequence (P46663 other isoform, or with tags, fused parts or gaps): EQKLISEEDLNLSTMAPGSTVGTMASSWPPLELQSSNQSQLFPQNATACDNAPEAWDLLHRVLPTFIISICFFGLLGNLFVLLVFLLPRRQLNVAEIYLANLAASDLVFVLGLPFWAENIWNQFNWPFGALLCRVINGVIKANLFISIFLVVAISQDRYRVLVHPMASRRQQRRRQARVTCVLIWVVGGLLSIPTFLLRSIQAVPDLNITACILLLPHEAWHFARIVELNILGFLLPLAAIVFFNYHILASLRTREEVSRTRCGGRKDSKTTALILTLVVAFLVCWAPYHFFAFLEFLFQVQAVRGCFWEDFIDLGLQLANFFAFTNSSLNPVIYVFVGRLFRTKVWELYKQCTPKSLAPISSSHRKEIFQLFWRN

[5] = target: TNP-BSA conjugate (trinitrophenyl hapten conjugated to bovine serum albumin) (bovine) (UniProt P02769)
[6] = target: Human Somatostain Receptor 2 (SSTR2), c-myc tagged with viral glycosilation sequence, on RBL-2H3 cells (human) (UniProt P30874)
Human Somatostain Receptor 2 (SSTR2), c-myc tagged with viral glycosilation sequence, on RBL-2H3 cells (human), sequence (P30874 other isoform, or with tags, fused parts or gaps): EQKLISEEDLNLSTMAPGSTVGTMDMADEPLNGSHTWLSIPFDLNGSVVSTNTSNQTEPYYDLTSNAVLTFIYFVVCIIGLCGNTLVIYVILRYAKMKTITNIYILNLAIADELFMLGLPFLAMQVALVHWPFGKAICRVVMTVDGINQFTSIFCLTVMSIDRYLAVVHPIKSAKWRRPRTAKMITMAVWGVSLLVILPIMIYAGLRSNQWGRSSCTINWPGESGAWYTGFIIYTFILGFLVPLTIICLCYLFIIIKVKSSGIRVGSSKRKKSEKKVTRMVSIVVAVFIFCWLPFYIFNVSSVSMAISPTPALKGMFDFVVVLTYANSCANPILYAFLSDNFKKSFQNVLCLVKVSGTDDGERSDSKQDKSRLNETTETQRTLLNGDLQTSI

Human Interleukin 8 Receptor (hIL8RA), on RBL-2H3 cells with human granzyme A (Sensor A) (human), sequence (P25024 other isoform, or with tags, fused parts or gaps, form in doubt): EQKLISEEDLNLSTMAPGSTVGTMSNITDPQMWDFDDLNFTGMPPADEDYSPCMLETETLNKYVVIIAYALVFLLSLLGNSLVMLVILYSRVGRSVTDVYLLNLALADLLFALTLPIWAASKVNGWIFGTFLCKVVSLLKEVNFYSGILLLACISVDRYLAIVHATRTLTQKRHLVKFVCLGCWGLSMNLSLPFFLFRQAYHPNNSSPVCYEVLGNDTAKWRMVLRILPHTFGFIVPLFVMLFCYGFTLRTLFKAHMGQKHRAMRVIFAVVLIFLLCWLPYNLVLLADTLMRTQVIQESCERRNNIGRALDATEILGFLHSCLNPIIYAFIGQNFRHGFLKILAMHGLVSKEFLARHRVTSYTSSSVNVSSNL
Human IL8, sequence (P10145 28-99 limits assumed): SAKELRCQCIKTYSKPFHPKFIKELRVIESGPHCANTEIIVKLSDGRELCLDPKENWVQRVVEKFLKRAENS

Substance: Human IL8 (from UniProt P10145 28-99) (ligand)
Signal to background at 30 min (released granzyme A activity; condition 2: Sensor A alone, IL8 10 uM) [1]: 16
Signal to background at 30 min (released granzyme A activity; condition 5: Sensor A mixed with Sensor B, IL8 10 uM and carbachol 10 uM) [1]: 12.5

Signal to Background (S/B), caspase-3 treated with granzyme B against caspase-3 only [2]: 2.8
Signal to Background (S/B), caspase-3 treated with granzyme B against caspase-3 only [3]: 77
signal to background, supernatant equivalent to 5.000 cells, 384 well plate [3]: > 20
Substance: human granzyme B secreted by stably transfected RBL-2H3 cells (from UniProt P10144 21-247) (enzyme)

Substance: kallinin (from UniProt P01042 380-389) (peptide)
Absorbance at maximal dilution of ELISA tested (human granzyme B sandwich ELISA of supernatant, dilution 2250, after subtraction of 0.2 blank) [4]: 0.8 absorbance
Sensitivity (minimal amount of cells needed) [4]: < 150 cells
exocytosis of granzyme B, percent of maximal at 5 minutes [4]: > 90%
signal to background (S/B) of released granzyme B activity, medium taken at 5 to 15 minutes [4]: 20 to 22
signal to background (S/B) of released granzyme B activity, medium taken at 30 minutes [4]: 15 to 17
signal to background (S/B) of released granzyme B activity, medium taken at 60 minutes [4]: 8 to 10

Fluorescence after 30 minutes at 37 C (released granzyme B, FRET substrate), TNP-BSA 1 pg/mL [5]: 35900 fluorescence
Fluorescence after 30 minutes at 37 C (released granzyme B, FRET substrate), TNP-BSA 1 ng/mL [5]: 34600 fluorescence
Fluorescence after 30 minutes at 37 C (released granzyme B, FRET substrate), TNP-BSA 1 ug/mL [5]: 30900 fluorescence
Fluorescence after 30 minutes at 37 C (released granzyme B, FRET substrate), TNP-BSA 1 fg/mL [5]: 29800 fluorescence
limit of detection for TNP-BSA [5]: 0.1 ag/mL
Substance: mouse IgE monoclonal antibody against trinitrophenyl hapten from IgELb4 hybridoma (ATCC TIB-141)

Substance: seglitide (peptide)
Absorbance at maximal dilution of ELISA tested (human granzyme B sandwich ELISA of supernatant, dilution 2250, after subtraction of 0.2 blank) [6]: 2.4 absorbance
Sensitivity (minimal amount of cells needed) [6]: < 150 cells
